Patent US20250218531A1 (ABSCI, published 2025)
Changes are numbered by the printed parent chain.

B1: De novo trastuzumab HCDR3 variant ARYHYRTIGSFGY (SEQ ID NO: 487) (Fab, V domains shown)
VH: EVQLVESGGGLVQPGGSLRLSCAASGFNIKDTYIHWVRQAPGKGLEWVARIYPTNGYTRYADSVKGRFTISADTSKNTAYLQMNSLRAEDTAVYYCARYHYRTIGSFGYWGQGTLVTVSS
VL: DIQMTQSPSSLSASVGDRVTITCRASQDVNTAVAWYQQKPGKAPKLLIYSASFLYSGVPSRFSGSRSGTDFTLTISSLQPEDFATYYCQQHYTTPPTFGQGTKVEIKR
B2: De novo trastuzumab HCDR3 variant AYMGSHTIYSFEH (SEQ ID NO: 479) (Fab, V domains shown)
VH: B1 VH with R98Y, Y99M, H100G, Y101S, R102H, G105Y, G108E, Y109H
VL: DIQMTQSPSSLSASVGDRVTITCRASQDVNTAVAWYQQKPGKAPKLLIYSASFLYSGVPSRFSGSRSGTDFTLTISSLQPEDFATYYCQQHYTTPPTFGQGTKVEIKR
B3: De novo trastuzumab HCDR3 variant ATGLSPSGSNGPY (SEQ ID NO: 491) (Fab, V domains shown)
VH: EVQLVESGGGLVQPGGSLRLSCAASGFNIKDTYIHWVRQAPGKGLEWVARIYPTNGYTRYADSVKGRFTISADTSKNTAYLQMNSLRAEDTAVYYCATGLSPSGSNGPYWGQGTLVTVSS
VL: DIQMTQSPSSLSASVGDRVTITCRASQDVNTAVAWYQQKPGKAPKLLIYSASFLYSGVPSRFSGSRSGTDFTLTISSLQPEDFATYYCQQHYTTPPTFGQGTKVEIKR
B4: De novo trastuzumab HCDR3 variant ATSGTASWQHYGV (SEQ ID NO: 481) (Fab, V domains shown)
VH: B3 VH with G99S, L100G, S101T, P102A, G104W, S105Q, N106H, G107Y, P108G, Y109V
VL: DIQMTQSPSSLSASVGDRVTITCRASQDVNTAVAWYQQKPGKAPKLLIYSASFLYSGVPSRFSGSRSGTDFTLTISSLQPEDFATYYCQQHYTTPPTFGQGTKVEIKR
B5: De novo trastuzumab HCDR3 variant AWASGYGGYGMDY (SEQ ID NO: 488) (Fab, V domains shown)
VH: B3 VH with T98W, G99A, L100S, S101G, P102Y, S103G, S105Y, N106G, G107M, P108D
VL: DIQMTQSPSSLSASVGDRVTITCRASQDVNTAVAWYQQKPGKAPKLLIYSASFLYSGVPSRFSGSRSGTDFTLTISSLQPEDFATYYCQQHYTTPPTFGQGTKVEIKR
B6: De novo trastuzumab HCDR3 variant VRSGYDYYSWFAY (SEQ ID NO: 492) (Fab, V domains shown)
VH: B1 VH with A97V, Y99S, H100G, R102D, T103Y, I104Y, G105S, S106W, G108A
VL: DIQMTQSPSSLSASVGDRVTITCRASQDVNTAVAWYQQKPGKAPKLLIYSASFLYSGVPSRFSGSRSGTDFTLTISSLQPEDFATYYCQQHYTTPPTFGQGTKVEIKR
B7: Trast_Her2_54 (Fab, V domains shown)
VH: EVQLVESGGGLVQPGGSLRLSCAASGFNIKDTYIHWVRQAPGKGLEWVARIYPTNGYTRYADSVKGRFTISADTSKNTAYLQMNSLRAEDTAVYYCAKNFLIGTRYWWGQGTLVTVSS
VL: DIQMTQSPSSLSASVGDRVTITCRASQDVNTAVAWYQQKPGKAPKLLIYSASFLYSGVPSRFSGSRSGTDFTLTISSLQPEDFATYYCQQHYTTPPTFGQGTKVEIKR
notes: also called HCDR3 AKNFLIGTRYW
B8: De novo trastuzumab HCDR3 variant ARLYYSSFNGM (SEQ ID NO: 485) (Fab, V domains shown)
VH: B7 VH with K98R, N99L, F100Y, L101Y, I102S, G103S, T104F, R105N, Y106G, W107M
VL: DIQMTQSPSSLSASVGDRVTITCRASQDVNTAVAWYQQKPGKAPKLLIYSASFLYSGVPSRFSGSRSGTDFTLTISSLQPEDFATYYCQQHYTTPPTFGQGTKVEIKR
B9: De novo trastuzumab HCDR3 variant TRRDFGYYMAY (SEQ ID NO: 494) (Fab, V domains shown)
VH: EVQLVESGGGLVQPGGSLRLSCAASGFNIKDTYIHWVRQAPGKGLEWVARIYPTNGYTRYADSVKGRFTISADTSKNTAYLQMNSLRAEDTAVYYCTRRDFGYYMAYWGQGTLVTVSS
VL: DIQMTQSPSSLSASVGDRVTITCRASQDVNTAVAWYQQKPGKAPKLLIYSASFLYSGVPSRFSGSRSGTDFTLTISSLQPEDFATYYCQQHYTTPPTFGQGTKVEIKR
B10: De novo trastuzumab HCDR3 variant AVEGGTRALEP (SEQ ID NO: 483) (Fab, V domains shown)
VH: B7 VH with K98V, N99E, F100G, L101G, I102T, G103R, T104A, R105L, Y106E, W107P
VL: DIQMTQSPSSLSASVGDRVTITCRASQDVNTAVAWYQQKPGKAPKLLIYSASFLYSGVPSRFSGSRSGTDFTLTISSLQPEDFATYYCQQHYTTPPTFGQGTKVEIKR
B11: AI Design 1 (multi-step AI designed trastuzumab HCDR1/2/3 variant) (Fab, V domains shown)
VH: EVQLVESGGGLVQPGGSLRLSCAASGFNVSSSYIHWVRQAPGKGLEWVARIYPENGSTRYADSVKGRFTISADTSKNTAYLQMNSLRAEDTAVYYCSRYSYYGGYAFDYWGQGTLVTVSS
VL: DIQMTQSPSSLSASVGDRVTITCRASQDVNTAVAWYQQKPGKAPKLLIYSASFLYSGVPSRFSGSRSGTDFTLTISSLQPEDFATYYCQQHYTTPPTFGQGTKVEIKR
notes: Fab format; also called GFNVSSSY / IYPENGST / SRYSYYGGYAFDY
B12: De novo trastuzumab HCDR3 variant ARYDYGYYIYVS (Fab, V domains shown)
VH: EVQLVESGGGLVQPGGSLRLSCAASGFNIKDTYIHWVRQAPGKGLEWVARIYPTNGYTRYADSVKGRFTISADTSKNTAYLQMNSLRAEDTAVYYCARYDYGYYIYVSWGQGTLVTVSS
VL: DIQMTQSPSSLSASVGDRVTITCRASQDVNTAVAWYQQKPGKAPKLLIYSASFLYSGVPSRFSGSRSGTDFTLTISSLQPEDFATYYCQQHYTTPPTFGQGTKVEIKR
notes: Fab format
B13: De novo trastuzumab HCDR3 variant ARYYGWYYYFDY (SEQ ID NO: 482) (Fab, V domains shown)
VH: B12 VH with D100Y, Y101G, G102W, I105Y, Y106F, V107D, S108Y
VL: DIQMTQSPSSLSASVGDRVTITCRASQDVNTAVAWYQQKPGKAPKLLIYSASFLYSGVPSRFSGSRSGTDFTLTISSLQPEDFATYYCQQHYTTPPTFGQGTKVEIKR
B14: De novo trastuzumab HCDR3 variant ARGYGVGASFVY (SEQ ID NO: 496) (Fab, V domains shown)
VH: B12 VH with Y99G, D100Y, Y101G, G102V, Y103G, Y104A, I105S, Y106F, S108Y
VL: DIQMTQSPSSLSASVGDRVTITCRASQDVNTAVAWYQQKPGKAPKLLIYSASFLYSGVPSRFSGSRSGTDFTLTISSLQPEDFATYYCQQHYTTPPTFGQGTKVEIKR
B15: De novo trastuzumab HCDR3 variant ASDRYGSYSLVS (SEQ ID NO: 480) (Fab, V domains shown)
VH: B12 VH with R98S, Y99D, D100R, Y103S, I105S, Y106L
VL: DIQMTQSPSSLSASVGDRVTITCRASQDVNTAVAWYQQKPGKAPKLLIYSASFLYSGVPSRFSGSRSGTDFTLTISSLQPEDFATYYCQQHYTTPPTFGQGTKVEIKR
B16: De novo trastuzumab HCDR3 variant ARYHYSGFFMDA (SEQ ID NO: 489) (Fab, V domains shown)
VH: B12 VH with D100H, G102S, Y103G, Y104F, I105F, Y106M, V107D, S108A
VL: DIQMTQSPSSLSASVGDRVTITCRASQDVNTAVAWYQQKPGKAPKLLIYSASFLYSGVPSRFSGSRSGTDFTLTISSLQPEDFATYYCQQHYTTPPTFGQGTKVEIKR
B17: Trast_Her2_49 (Fab, V domains shown)
VH: B12 VH with R98K, Y99G, D100T, Y101S, G102S, Y103W, I105N, Y106F, V107G, S108V
VL: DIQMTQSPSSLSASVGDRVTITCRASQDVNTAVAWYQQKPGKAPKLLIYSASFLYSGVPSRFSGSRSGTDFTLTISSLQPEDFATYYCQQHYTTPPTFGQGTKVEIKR
notes: also called HCDR3 AKGTSSWYNFGV

What was measured:
[1] = biological target: human epidermal growth factor receptor 2 (HER2) extracellular domain (human, UniProt P04626 23-629); assay: SPR, Fab format
[2] = biological target: T1, human epidermal growth factor receptor 2 (HER2) extracellular domain (human, UniProt P04626 23-629); assay: SPR, table row 8
[3] = biological target: T1, human epidermal growth factor receptor …; assay: SPR
[4] = biological target: T1, human epidermal growth factor receptor …; assay: SPR (Carterra LSA), Fab captured, HER2 ECD as analyte
[5] = biological target: T1, human epidermal growth factor receptor …; assay: SPR, table row 1

| Binder | Kd [1] | log(KD (M)) [1] | also measured |
| --- | --- | --- | --- |
| B1 | 367 nM | -6.44 log M |  |
| B2 | 301 nM | -6.52 log M |  |
| B3 | 444 nM | -6.35 log M |  |
| B4 | 322 nM | -6.49 log M |  |
| B5 | 368 nM | -6.43 log M |  |
| B6 | 465 nM | -6.33 log M |  |
| B7 |  |  | Kd [2]: 2.68 nM; koff [2]: 4.11e-05 s⁻¹; kon [2]: 15400 M⁻¹ s⁻¹ |
| B8 | 339 nM | -6.47 log M |  |
| B9 | 547 nM | -6.26 log M |  |
| B10 | 326 nM | -6.49 log M |  |
| B11 |  |  | Kd [3]: 225 nM |
| B12 |  |  | log10(KD) [4]: -8.02 log10(M) |
| B13 | 323 nM | -6.49 log M |  |
| B14 | 630 nM | -6.2 log M |  |
| B15 | 314 nM | -6.5 log M |  |
| B16 | 433 nM | -6.36 log M |  |
| B17 |  |  | Kd [5]: ≤ 0.517 nM; koff [5]: ≤ 1e-05 s⁻¹; kon [5]: 19300 M⁻¹ s⁻¹ |
